Source: patent publication US20200292534A1
Positions count from the first letter of the chain named. Each block holds one binder with its values, some of them ahead of it.

Experiments:
NLpoly11S [1] = biological target: T1, NLpoly11S; assay: luminescence complementation titration (E. coli lysate NLpoly, synthetic NLpep), one site-specific binding fit
T1 chain: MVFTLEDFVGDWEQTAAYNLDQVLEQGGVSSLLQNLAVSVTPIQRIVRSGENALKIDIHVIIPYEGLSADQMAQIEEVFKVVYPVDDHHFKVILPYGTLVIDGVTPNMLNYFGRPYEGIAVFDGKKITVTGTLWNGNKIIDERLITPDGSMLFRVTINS

NLpoly11S [2] = biological target: T1, NLpoly11S; assay: luminescence complementation titration, one-site specific binding; conditions: chains peptide; modification not given
NLpoly11S [3] = biological target: T1, NLpoly11S; assay: as above; conditions: chains peptide; modification not given
NLpoly11S [4] = biological target: T1, NLpoly11S; assay: as above; conditions: chains peptide; modification not given
NLpoly 5P [5] = biological target: T2, NLpoly 5P; assay: luminescence complementation; HeLa lysate; conditions: chains peptide; modification not given
T2 chain: T1 chain with L33F, R48L, E77K, V78I, P95H, L109I, S159P

ATG = biological target: T3, ATG; assay: luminescence complementation; conditions: chains peptide; modification not given
T3 chain: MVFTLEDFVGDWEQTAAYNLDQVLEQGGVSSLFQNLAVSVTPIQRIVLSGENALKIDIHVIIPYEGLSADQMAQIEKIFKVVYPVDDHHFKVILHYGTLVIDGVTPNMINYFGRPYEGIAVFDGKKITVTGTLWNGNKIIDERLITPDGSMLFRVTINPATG

GTA = biological target: T4, GTA; assay: luminescence complementation; conditions: chains peptide; modification not given
T4 chain: T3 chain with A160G, G162A

NLpoly 5P [6] = biological target: T2, NLpoly 5P; assay: luminescence complementation; conditions: chains peptide; modification not given
VTG = biological target: T5, VTG; assay: luminescence complementation; conditions: chains peptide; modification not given
T5 chain: T3 chain with A160V

AA = assay: luminescence complementation; conditions: chains peptide; modification not given
VA = assay: luminescence complementation; conditions: chains peptide; modification not given
VT = assay: luminescence complementation; conditions: chains peptide; modification not given
[7] = substrate: CP Nluc; assay: cell-based or functional assay

Kd (NLpoly11S [1]): < 1 nM
fold improved affinity over NLpolyWT:NLpepWT (NLpoly11S [1]): 10000 fold
Binder: VSGWRLFKKIS (modifications not checked) [NLpep86]

Kd (NLpoly11S [2]): 2.39 nM
Kd (NLpoly11S [3]): 9.56 nM
Binder: NVSGWRLFKKISN [NLpep78]

Kd (AA): 115 nM
Kd (NLpoly 5P [6]): 110 nM
Kd (VA): 132 nM
Kd (VT): 137 nM
Binder: SGWRLFKKISN [NLpep81]

inhibition of the luminescence generated by CP Nluc [7]: > 2 logs
Binder: VSGWALFKKIS (modifications not checked) [Ala-162]

Second part, the binder before the results:

Binder: NVTGYRLFKKISN [NLpep79]
Kd (NLpoly11S [2]): 20.3 nM
Kd (NLpoly11S [4]): 13.1 nM

Binder: VSGWRLFKKISN [NLpep80]
Kd (NLpoly11S [1]): < 1 nM
fold improved affinity over NLpolyWT:NLpepWT (NLpoly11S [1]): 10000 fold
Kd (NLpoly 5P [5]): 1 nM

Binder: GWRLFKKISN [NLpep82]
Kd (ATG): 230 nM
Kd (GTA): 254 nM
Kd (NLpoly 5P [6]): 215 nM
Kd (VTG): 276 nM

Binder: VSGWQLFKKIS (modifications not checked) [Gln-162]
inhibition of the luminescence generated by CP Nluc [7]: > 1 log
